Columns and labels:
[1] = biological target: MICA alpha-3 domain of MICA*001 (Homo sapiens, allele MICA*001, UniProt Q29983, strain); test: crystal structure
[2] = biological target: MICA*001 extracellular domain (Homo sapiens, allele MICA*001, UniProt Q29983); test: ELISA
[3] = biological target: MICA*002 extracellular domain (Homo sapiens, allele MICA*002 (stand-in …, UniProt Q29983)); test: ELISA
[4] = biological target: MICB*004 extracellular domain (Homo sapiens, allele MICB*004, UniProt Q29980); test: BLI

binding result [1]	binding result [2]	binding result [3]	Kd [4] [nM]	Binder
binds				Fab fragment of CLN-619 (Fab, V domains shown) VH: QVQLVESGGGLVKPGGSLRLSCAASGFTFSNYAMSWIRQAPGKGLEWVSYISPGGDYIYYADSVKGRFTISRDNAKNSLYLQMNSLRAEDTAVYYCTTDRRHYGSYAMDYWGQGTLVTVSS VL: DIVMTQSPLSLPVTPGEPASISCRSSKSLLHSNLNTYLYWFLQKPGQSPQILIYRMSNLASGVPDRFSGSGSGTAFTLKISRVEAEDVGVYYCMQHLEYPFTFGPGTKLEIK
	binds	binds	11.4	CLN-619, humanized IgG1 monoclonal antibody against MICA/B (antibody, V domains shown) VH: QVQLVESGGGLVKPGGSLRLSCAASGFTFSNYAMSWIRQAPGKGLEWVSYISPGGDYIYYADSVKGRFTISRDNAKNSLYLQMNSLRAEDTAVYYCTTDRRHYGSYAMDYWGQGTLVTVSS VL: DIVMTQSPLSLPVTPGEPASISCRSSKSLLHSNLNTYLYWFLQKPGQSPQILIYRMSNLASGVPDRFSGSGSGTAFTLKISRVEAEDVGVYYCMQHLEYPFTFGPGTKLEIK

— PMC12020772 (Journal for Immunotherapy of Cancer, 2025)
